# In paper PMC2834698:
# Molecular target: Arabidopsis thaliana transthyretin-like protein (TTL), 311-residue cytoplasmic isoform (Arabidopsis thaliana)
# Assay: SEC + other: sucrose density gradient rate zonal ultracentrifugation; Siegel and Monty method: Stokes radius from analytical gel filtration (Superose 12 10/300, 0.5 ml/min) and sedimentation coefficient from 5 to 20% sucrose gradients (25 h 15 min, 260800 g, SW41 Ti), both in buffer C (150 mM NaCl, EDTA, 20 mM Tris-HCl, pH 8.0); native mass 137.3 kDa against a subunit of 36.6 kDa
substance,measurement,value
"Arabidopsis thaliana transthyretin-like protein (TTL), 311-residue cytoplasmic isoform (enzyme)",stoichiometry N,4
